Measurements from patent US20110263454A1, “Methods of Identifying Functional Characteristics of Promoters, Transcription Modifying Proteins and Transcription Modulating Agents” (Salk Institute for Biological Studies, priority 2008, published 2011).

Experiments:
SREBP1c promoter = assay: NHR-promoter luciferase screen, SREBP1c promoter; type: cell-based, mouse
Method in brief: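 Values are luciferase activity normalised to LacZ (transfection control) and to a control lacking NHR or ligand. Read-out at 48 h in CV-1 cells carrying 100 ng promoter-reporter, 50 ng receptor (alone or with RXR) and 50 ng LacZ.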

hMyoD promoter = assay: NHR-promoter luciferase screen, hMyoD promoter; type: cell-based, human
Method in brief: (§1)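 CV-1 cells were co-transfected with 50 ng NHR (homodimer or NHR/RXR heterodimer), 100 ng promoter-luciferase construct and 50 ng LacZ. Luciferase was normalized to LacZ and to a no-NHR/no-ligand control.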

mDio2 promoter = assay: NHR-promoter luciferase screen, mDio2 promoter; type: cell-based, mouse
Method in brief: as §1

hTNFa promoter = assay: NHR-promoter luciferase screen, hTNFa promoter; type: cell-based, human
Method in brief: as §1

hPOMC promoter = assay: NHR-promoter luciferase screen, hPOMC promoter; type: cell-based, human
Method in brief: as §1

mUCP1 promoter = assay: NHR-promoter luciferase screen, mUCP1 promoter; type: cell-based, mouse
Method in brief: as §1

[1] = SREBP1c promoter, HR component without or with ligand
[2] = transcription factor +/- ligand, control = 1.00
[3] = Dio2, HR component without or with its ligand
[4] = TNFa promoter, HR component without or with ligand

B1: hMR: Mineralocorticoid Receptor (NR3C2, MR), cDNA driver (protein, UniProt P08235 1-984, looked up)
Mineralocorticoid receptor: METKGYHSLPEGLDMERRWGQVSQAVERSSLGPTERTDENNYMEIVNVSCVSGAIPNNSTQGSSKEKQELLPCLQQDNNRPGILTSDIKTELESKELSATVAESMGLYMDSVRDADYSYEQQNQQGSMSPAKIYQNVEQLVKFYKGNGHRPSTLSCVNTPLRSFMSDSGSSVNGGVMRAVVKSPIMCHEKSPSVCSPLNMTSSVCSPAGINSVSSTTASFGSFPVHSPITQGTPLTCSPNVENRGSRSHSPAHASNVGSPLSSPLSSMKSSISSPPSHCSVKSPVSSPNNVTLRSSVSSPANINNSRCSVSSPSNTNNRSTLSSPAASTVGSICSPVNNAFSYTASGTSAGSSTLRDVVPSPDTQEKGAQEVPFPKTEEVESAISNGVTGQLNIVQYIKPEPDGAFSSSCLGGNSKINSDSSFSVPIKQESTKHSCSGTSFKGNPTVNPFPFMDGSYFSFMDDKDYYSLSGILGPPVPGFDGNCEGSGFPVGIKQEPDDGSYYPEASIPSSAIVGVNSGGQSFHYRIGAQGTISLSRSARDQSFQHLSSFPPVNTLVESWKSHGDLSSRRSDGYPVLEYIPENVSSSTLRSVSTGSSRPSKICLVCGDEASGCHYGVVTCGSCKVFFKRAVEGQHNYLCAGRNDCIIDKIRRKNCPACRLQKCLQAGMNLGARKSKKLGKLKGIHEEQPQQQQPPPPPPPPQSPEEGTTYIAPAKEPSVNTALVPQLSTISRALTPSPVMVLENIEPEIVYAGYDSSKPDTAENLLSTLNRLAGKQMIQVVKWAKVLPGFKNLPLEDQITLIQYSWMCLSSFALSWRSYKHTNSQFLYFAPDLVFNEEKMHQSAMYELCQGMHQISLQFVRLQLTFEEYTIMKVLLLLSTIPKDGLKSQAAFEEMRTNYIKELRKMVTKCPNNSGQSWQRFYQLTKLLDSMHDLVSDLLEFCFYTFRESHALKVEFPAMLVEIISDQLPKVESGNAKPLYFHRK
- Luc. act., normalized to lacZ (SREBP1c promoter; [1]): 223.2
- Normalized Luc. act., normalized to control (SREBP1c promoter; [1]): 0.7
- mSREBP1-c promoter reporter activity (SREBP1c promoter; [2]): 0.69
- Luc. act., normalized to lacZ (hMyoD promoter; MyoD promoter reporter, co-transfected HR, without or with its ligand): 37.1
- Normalized Luc. act., normalized to control (hMyoD promoter; MyoD promoter reporter, co-transfected HR, without or with its ligand, relative to control): 0.6
- luciferase activity normalized to lacZ activity and to a control, hMyoD (hMyoD promoter; hMyoD promoter-luciferase, CV-1 cells, NHR +/- ligand, control = 1.00): 0.59
- Luc. act., normalized to lacZ (mDio2 promoter; [3]): 12.7
- Normalized Luc. act., normalized to control (mDio2 promoter; [3]): 0.8
- mDio2 promoter reporter activity (mDio2 promoter; [2]): 0.81
- Luc. act., normalized to lacZ (hTNFa promoter; [4]): 614.3
- Normalized Luc. act., normalized to control (hTNFa promoter; [4]): 0.6
- hTNFa promoter reporter activity (hTNFa promoter; [2]): 0.62
- Normalized Luc. act., normalized to control (hPOMC promoter; hPOMC promoter, HR/ligand component): 0.0
- hPOMC promoter reporter activity (hPOMC promoter; [2]): 0.00
- Luc. act., normalized to lacZ (mUCP1 promoter; mUCP1 promoter reporter, co-transfected HR, with or without its ligand): 2.1
- Normalized Luc. act., normalized to control (mUCP1 promoter; mUCP1 promoter reporter, co-transfected HR, with or without its ligand, relative to control): 0.5
- luciferase activity normalized to lacZ activity and to a control, mUCP! (mUCP1 promoter; mUCP! promoter-luciferase, CV-1 cells, NHR +/- ligand, control = 1.00): 0.48
